Legend:
[1] = Preliminary tests of FF58 resistance to radiation stress; assay type: physicochemical
Method: Additional tests were performed in order to evaluate the radiolysis also in more stressful conditions such as 40° C. storage temperature and rolling, decreasing antioxidant agent (sodium ascorbate and gentisic acid) amounts. The radiochemical purity (RCP) was monitored at release time and at expiration time by Radio-RP-HPLC.

[2] = test system: WM266 melanoma tumor; parameters: species or system mice; details: mouse, in vivo
Method: Nude, male and female athymic mice bearing the WM266 melanoma tumor were intravenously injected with ^68Ga-Compound (˜100-150/uCi 320-480 pmol for males, ˜100-150 uCi/127-191 pmol for females, corresponding to 3.7-5.55 MBq). Animals were sacrificed in groups of four at 30 min, 1 h, 2 h and 4 h post injection. Tumor and organs of interest were collected, weighed and measured for radioactivity with a gamma-counter. The intestines and stomach were not emptied of their contents. Data were calculated as a percentage of the injected dose per gram of tissue (% ID/g).

[3] = target: αvβ3 (Homo sapiens, UniProt P05106+P06756); assay: Affinity for αvβ3 (preclinical data, summary statement); assay type: binding
[4] = target: αvβ5 (Homo sapiens, UniProt P06756+P18084); assay: Affinity for αvβ5 (preclinical data, summary statement); assay type: binding
[5] = test system: other receptors; assay: Affinity for other receptors (preclinical data, summary statement); assay type: binding

αvβ3, sequence (P06756 31-889 limits assumed): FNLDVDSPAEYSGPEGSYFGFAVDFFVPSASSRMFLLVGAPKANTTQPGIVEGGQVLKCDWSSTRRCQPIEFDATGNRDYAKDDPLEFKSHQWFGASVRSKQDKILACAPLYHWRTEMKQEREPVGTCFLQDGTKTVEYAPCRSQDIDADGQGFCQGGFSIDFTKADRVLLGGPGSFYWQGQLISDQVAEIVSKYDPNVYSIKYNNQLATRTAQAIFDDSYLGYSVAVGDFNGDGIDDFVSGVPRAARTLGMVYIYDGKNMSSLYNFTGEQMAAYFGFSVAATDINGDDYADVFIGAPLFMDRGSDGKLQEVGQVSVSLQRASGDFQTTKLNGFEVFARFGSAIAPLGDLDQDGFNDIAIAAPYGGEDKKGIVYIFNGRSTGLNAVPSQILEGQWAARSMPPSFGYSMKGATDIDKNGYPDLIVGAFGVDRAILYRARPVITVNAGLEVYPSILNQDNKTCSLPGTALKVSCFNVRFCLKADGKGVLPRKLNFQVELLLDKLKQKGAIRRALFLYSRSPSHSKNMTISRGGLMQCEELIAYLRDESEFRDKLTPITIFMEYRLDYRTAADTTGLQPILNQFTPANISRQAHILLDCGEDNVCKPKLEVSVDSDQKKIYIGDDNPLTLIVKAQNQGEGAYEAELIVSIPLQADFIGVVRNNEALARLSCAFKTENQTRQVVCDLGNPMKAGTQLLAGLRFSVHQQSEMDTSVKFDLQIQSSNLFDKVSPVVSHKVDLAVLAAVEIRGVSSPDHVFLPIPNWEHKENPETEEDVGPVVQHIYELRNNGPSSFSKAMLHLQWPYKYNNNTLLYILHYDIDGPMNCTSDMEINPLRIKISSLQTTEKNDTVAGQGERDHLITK
αvβ3, sequence (P06756 891-1048 partner limits assumed): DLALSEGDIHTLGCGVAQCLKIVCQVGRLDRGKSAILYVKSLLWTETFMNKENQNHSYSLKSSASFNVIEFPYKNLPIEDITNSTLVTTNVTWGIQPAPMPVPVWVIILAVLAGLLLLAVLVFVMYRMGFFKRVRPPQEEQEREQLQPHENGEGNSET
αvβ3, sequence (P05106 27-788): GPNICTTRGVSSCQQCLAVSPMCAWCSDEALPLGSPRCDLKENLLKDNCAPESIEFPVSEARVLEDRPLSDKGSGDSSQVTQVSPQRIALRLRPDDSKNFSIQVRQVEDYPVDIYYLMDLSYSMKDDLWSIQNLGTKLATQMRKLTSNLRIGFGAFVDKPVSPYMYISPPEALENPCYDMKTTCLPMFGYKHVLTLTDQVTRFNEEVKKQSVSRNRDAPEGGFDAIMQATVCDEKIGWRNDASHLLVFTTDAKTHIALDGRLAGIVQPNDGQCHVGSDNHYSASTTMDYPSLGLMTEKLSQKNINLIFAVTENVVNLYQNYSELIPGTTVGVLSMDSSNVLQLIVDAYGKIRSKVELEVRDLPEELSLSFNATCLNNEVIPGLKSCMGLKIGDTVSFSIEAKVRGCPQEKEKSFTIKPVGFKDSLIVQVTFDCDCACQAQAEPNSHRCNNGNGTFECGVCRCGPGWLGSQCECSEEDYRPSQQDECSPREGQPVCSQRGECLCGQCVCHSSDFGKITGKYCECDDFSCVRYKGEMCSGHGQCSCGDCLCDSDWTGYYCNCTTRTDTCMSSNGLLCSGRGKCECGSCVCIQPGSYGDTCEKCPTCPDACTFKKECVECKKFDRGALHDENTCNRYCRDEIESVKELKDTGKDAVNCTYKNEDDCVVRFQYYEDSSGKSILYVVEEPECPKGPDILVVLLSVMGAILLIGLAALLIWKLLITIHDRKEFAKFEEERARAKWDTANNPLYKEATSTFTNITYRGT
αvβ5, sequence (P06756 31-889 limits assumed): as the sequence (P06756 31-889 limits assumed) above
αvβ5, sequence (P06756 891-1048 partner limits assumed): as the sequence (P06756 891-1048 partner limits assumed) above
αvβ5, sequence (P18084 24-799): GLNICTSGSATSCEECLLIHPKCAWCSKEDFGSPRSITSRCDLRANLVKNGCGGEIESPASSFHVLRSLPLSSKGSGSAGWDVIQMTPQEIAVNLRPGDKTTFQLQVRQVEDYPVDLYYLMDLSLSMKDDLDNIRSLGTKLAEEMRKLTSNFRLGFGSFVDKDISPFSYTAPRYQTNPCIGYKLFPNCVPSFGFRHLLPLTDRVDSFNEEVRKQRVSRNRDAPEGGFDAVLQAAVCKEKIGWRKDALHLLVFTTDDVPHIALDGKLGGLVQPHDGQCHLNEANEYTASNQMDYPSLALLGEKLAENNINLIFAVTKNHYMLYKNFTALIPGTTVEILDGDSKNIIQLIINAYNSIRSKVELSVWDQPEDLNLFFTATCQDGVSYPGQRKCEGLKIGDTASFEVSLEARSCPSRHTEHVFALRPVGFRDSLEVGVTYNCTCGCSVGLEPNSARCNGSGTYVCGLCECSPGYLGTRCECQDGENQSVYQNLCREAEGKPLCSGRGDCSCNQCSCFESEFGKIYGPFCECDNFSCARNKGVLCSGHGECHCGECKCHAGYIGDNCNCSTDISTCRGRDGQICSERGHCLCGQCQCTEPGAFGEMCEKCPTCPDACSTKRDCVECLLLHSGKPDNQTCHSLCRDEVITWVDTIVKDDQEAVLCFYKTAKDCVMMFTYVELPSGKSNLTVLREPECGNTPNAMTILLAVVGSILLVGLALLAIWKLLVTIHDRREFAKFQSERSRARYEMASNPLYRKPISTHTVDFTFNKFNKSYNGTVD

affinity for αvβ3 [3] | affinity for αvβ5 [4] | affinity for other receptors [5] | SMILES | resistance to the radiation stress [1] | background uptake in normal organs [2] | excretion (uptake in the kidneys and intestine) [2]
 |  |  | Cc1cc(OCCCC(=O)NCCNC(=O)[C@H](CS(=O)(=O)O)NC(=O)CN2CCN(CC(=O)O)CCN(CC(=O)O)CCN(CC(=O)O)CC2)cc(C)c1S(=O)(=O)NC(CNC(=O)CCCCc1ccc2c(n1)NCCC2)C(=O)O (stereo partly drawn) [FF58] | good resistance to the radiation stress |  | 
high affinity | high affinity | absence of affinity | Cc1cc(OCCCC(=O)NCCNC(=O)[C@H](CS(=O)(=O)O)NC(=O)CN2CCN(CC(=O)O)CCN(CC(=O)O)CCN(CC(=O)O)CC2)cc(C)c1S(=O)(=O)NC(CNC(=O)CCCCc1ccc2c(n1)NCCC2)C(=O)O (single isomer, unassigned) [^68Ga-Compound, metal not drawn] |  | cleared moderately by 4 h | renal and partial hepatic excretion

From patent US20240050597A1, “RADIOLABELLED ALPHA-V BETA-3 AND/OR ALPHA-V BETA-5 INTEGRINS ANTAGONIST FOR USE AS THERAGNOSTIC AGENT” (ADVANCED ACCELERATOR APPLICATIONS INTERNATIONAL SA, priority 2020, published 2024)
